Data on 1 substance can be found in US20250243278A1.

The target in assay [1] is recombinant human B7H3 extra cellular domain (ECD) protein (human) (UniProt Q5ZPR3). In words: Octet binding assay.
Assay [2] deals with human B7H3 on A498 cells (human) (UniProt Q5ZPR3). Description: flow cytometry, whole cell binding to B7H3+ A498 cells, MFI.
The target is the same in assay [3]. Described as above. The source holds these as a separate data set.
The target is the same in assay [4]. In words: flow cytometry, whole cell binding to B7H3+ A498 cells, MFI (FITC).

Sequence of recombinant human B7H3 extra cellular domain (ECD) protein (human) (Q5ZPR3 29-461): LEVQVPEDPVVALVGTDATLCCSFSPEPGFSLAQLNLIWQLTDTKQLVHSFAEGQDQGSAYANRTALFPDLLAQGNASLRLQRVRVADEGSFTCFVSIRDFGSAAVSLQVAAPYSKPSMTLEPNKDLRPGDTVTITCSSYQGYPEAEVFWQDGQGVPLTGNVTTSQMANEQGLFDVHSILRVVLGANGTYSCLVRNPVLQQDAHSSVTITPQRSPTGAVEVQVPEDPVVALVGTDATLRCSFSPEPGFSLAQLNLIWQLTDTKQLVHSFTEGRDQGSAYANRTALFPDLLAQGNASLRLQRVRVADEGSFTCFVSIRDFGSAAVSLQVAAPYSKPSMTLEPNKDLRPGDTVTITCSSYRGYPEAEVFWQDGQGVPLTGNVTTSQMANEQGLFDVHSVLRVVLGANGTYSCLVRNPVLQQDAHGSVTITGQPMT
Sequence of human B7H3 on A498 cells (human) (Q5ZPR3 29-534 limits assumed): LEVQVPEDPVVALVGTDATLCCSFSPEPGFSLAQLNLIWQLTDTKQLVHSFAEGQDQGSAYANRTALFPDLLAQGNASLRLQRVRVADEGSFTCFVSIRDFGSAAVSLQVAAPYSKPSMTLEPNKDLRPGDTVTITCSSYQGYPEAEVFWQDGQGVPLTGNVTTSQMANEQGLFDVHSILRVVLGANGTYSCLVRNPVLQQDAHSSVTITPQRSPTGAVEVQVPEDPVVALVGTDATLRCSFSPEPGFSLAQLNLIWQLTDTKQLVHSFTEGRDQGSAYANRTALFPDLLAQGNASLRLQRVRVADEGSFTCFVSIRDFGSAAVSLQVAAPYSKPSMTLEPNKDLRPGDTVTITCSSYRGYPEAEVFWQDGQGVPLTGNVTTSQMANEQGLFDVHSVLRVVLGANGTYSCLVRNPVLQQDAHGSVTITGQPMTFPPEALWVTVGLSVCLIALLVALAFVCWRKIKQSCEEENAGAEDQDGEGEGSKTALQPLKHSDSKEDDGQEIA

As to “Reference Ab 1 (an enoblituzumab analog) (antibody)”, the Kd in assay [1] was 0.739 nM. Besides, in assay [1], the dissociation rate constant (koff) amounted to 0.000199 s⁻¹. In assay [1], the kon is 269000 M⁻¹ s⁻¹. Besides, the concentration for a half-maximal effect (EC50) in assay [2] is 7.94 nM; in assay [3] it was 2.18 nM; in assay [4], 0.697 nM.
